Reference: the supplement of paper PMC11246515
± gives the standard deviation of the averaged measurements.

Test: total protein half-life in vivo (active degradation + dilution); higher = more stable protein
[1] = E. coli NCM3722 delta-clpP delta-lon delta-hslV, growth: N-lim chemostat, doubling time 6 h
[2] = E. coli NCM3722 delta-clpP, growth: N-lim chemostat, doubling time 6 h
[3] = E. coli NCM3722 delta-hslV, growth: N-lim chemostat, doubling time 6 h
[4] = E. coli NCM3722 delta-lon, growth: N-lim chemostat, doubling time 6 h
[5] = E. coli NCM3722 delta-smpB, growth: N-lim chemostat, doubling time 6 h
[6] = wild type E. coli NCM3722, growth: C-lim chemostat, doubling time 3 h
[7] = wild type E. coli NCM3722, growth: C-lim chemostat, doubling time 6 h
[8] = wild type E. coli NCM3722, growth: C-lim chemostat, doubling time 12 h
[9] = wild type E. coli NCM3722, growth: N-lim chemostat, doubling time 6 h
[10] = wild type E. coli NCM3722, growth: N-lim chemostat, doubling time 12 h
[11] = wild type E. coli NCM3722, growth: P-lim chemostat, doubling time 6 h
[12] = wild type E. coli NCM3722, growth: P-lim chemostat, doubling time 12 h

Sequence: MTVSSHRLELLSPARDAAIAREAILHGADAVYIGGPGFGARHNASNSLKDIAELVPFAHRYGAKIFVTLNTILHDDELEPAQRLITDLYQTGVDALIVQDMGILELDIPPIELHASTQCDIRTVEKAKFLSDVGFTQIVLARELNLDQIRAIHQATDATIEFFIHGALCVAYSGQCYISHAQTGRSANRGDCSQACRLPYTLKDDQGRVVSYEKHLLSMKDNDQTANLGALIDAGVRSFKIEGRYKDMSYVKNITAHYRQMLDAIIEERGDLARASSGRTEHFFVPSTEKTFHRGSTDYFVNARKGDIGAFDSPKFIGLPVGEVVKVAKDHLDVAVTEPLANGDGLNVLIKREVVGFRANTVEKTGENQYRVWPNEMPADLHKIRPHHPLNRNLDHNWQQALTKTSSERRVAVDIELGGWQEQLILTLTSEEGVSITHTLDGQFDEANNAEKAMNNLKDGLAKLGQTLYYARDVQINLPGALFVPNSLLNQFRREAADMLDAARLASYQRGSRKPVADPAPVYPQTHLSFLANVYNQKAREFYHRYGVQLIDAAYEAHEEKGEVPVMITKHCLRFAFNLCPKQAKGNIKSWKATPMQLVNGDEVLTLKFDCRPCEMHVIGKIKNHILKMPLPGSVVASVSPDELLKTLPKRKG
- total protein half-life in vivo [1]: 4.77 ± 0.49 h
- total protein half-life in vivo [2]: 0.895 h
- total protein half-life in vivo [3]: 1.82 ± 0.064 h
- total protein half-life in vivo [4]: 2.74 ± 0.24 h
- total protein half-life in vivo [5]: 1.75 ± 0.024 h
- total protein half-life in vivo [6]: 1.911 ± 0.011 h
- total protein half-life in vivo [7]: 2.78 ± 0.12 h
- total protein half-life in vivo [8]: 3.03 ± 0.49 h
- total protein half-life in vivo [9]: 2.12 ± 0.058 h
- total protein half-life in vivo [10]: 2.47 ± 0.12 h
- total protein half-life in vivo [11]: 2.13 ± 0.32 h
- total protein half-life in vivo [12]: 3.17 ± 0.38 h

Sequence: MTVTRPRAERGAFPPGTEHYGRSLLGAPLIWFPAPAASRESGLILAGTHGDENSSVVTLSCALRTLTPSLRRHHVVLCVNPDGCQLGLRANANGVDLNRNFPAANWKEGETVYRWNSAAEERDVVLLTGDKPGSEPETQALCQLIHRIQPAWVVSFHDPLACIEDPRHSELGEWLAQAFELPLVTSVGYETPGSFGSWCADLNLHCITAEFPPISSDEASEKYLFAMANLLRWHPKDAIRPS [P0ACV6]
- total protein half-life in vivo [1]: 4.35 ± 0.052 h
- total protein half-life in vivo [2]: 4.17 ± 0.28 h
- total protein half-life in vivo [3]: 3.78 ± 0.16 h
- total protein half-life in vivo [4]: 4.19 ± 0.46 h
- total protein half-life in vivo [5]: 3.94 ± 0.21 h
- total protein half-life in vivo [6]: 3.03 ± 0.27 h
- total protein half-life in vivo [7]: 4.71 ± 0.84 h
- total protein half-life in vivo [8]: 9.23 ± 0.26 h
- total protein half-life in vivo [9]: 3.66 ± 0.29 h
- total protein half-life in vivo [10]: 6.85 ± 0.2 h
- total protein half-life in vivo [11]: 4.71 ± 0.42 h
- total protein half-life in vivo [12]: 10.7 ± 0.85 h

Sequence: MVAENQPGHIDQIKQTNAGAVYRLIDQLGPVSRIDLSRLAQLAPASITKIVREMLEAHLVQELEIKEAGNRGRPAVGLVVETEAWHYLSLRISRGEIFLALRDLSSKLVVEESQELALKDDLPLLDRIISHIDQFFIRHQKKLERLTSIAITLPGIIDTENGIVHRMPFYEDVKEMPLGEALEQHTGVPVYIQHDISAWTMAEALFGASRGARDVIQVVIDHNVGAGVITDGHLLHAGSSSLVEIGHTQVDPYGKRCYCGNHGCLETIASVDSILELAQLRLNQSMSSMLHGQPLTVDSLCQAALRGDLLAKDIITGVGAHVGRILAIMVNLFNPQKILIGSPLSKAADILFPVISDSIRQQALPAYSQHISVESTQFSNQGTMAGAALVKDAMYNGSLLIRLLQG
- total protein half-life in vivo [1]: 5.81 ± 0.28 h
- total protein half-life in vivo [2]: 6.92 ± 0.73 h
- total protein half-life in vivo [4]: 6.12 ± 0.57 h
- total protein half-life in vivo [5]: 6.02 ± 0.33 h
- total protein half-life in vivo [6]: 2.89 ± 0.014 h
- total protein half-life in vivo [7]: 5.92 ± 0.69 h
- total protein half-life in vivo [8]: 9.65 ± 0.51 h
- total protein half-life in vivo [9]: 5.85 ± 0.26 h
- total protein half-life in vivo [10]: 12.8 ± 0.51 h
- total protein half-life in vivo [11]: 6.19 ± 1 h
- total protein half-life in vivo [12]: 12.4 ± 0.56 h

Sequence: MVAPIPAKRGRKPAVATAPATGQVQSLTRGLKLLEWIAESNGSVALTELAQQAGLPNSTTHRLLTTMQQQGFVRQVGELGHWAIGAHAFMVGSSFLQSRNLLAIVHPILRNLMEESGETVNMAVLDQSDHEAIIIDQVQCTHLMRMSAPIGGKLPMHASGAGKAFLAQLSEEQVTKLLHRKGLHAYTHATLVSPVHLKEDLAQTRKRGYSFDDEEHALGLRCLAACIFDEHREPFAAISISGPISRITDDRVTEFGAMVIKAAKEVTLAYGGMR
- total protein half-life in vivo [1]: 5.87 ± 0.33 h
- total protein half-life in vivo [2]: 5.93 ± 0.11 h
- total protein half-life in vivo [3]: 5.33 ± 0.38 h
- total protein half-life in vivo [4]: 5.45 ± 0.43 h
- total protein half-life in vivo [5]: 5.348 ± 0.028 h
- total protein half-life in vivo [6]: 2.89 ± 0.17 h
- total protein half-life in vivo [7]: 5.43 ± 0.46 h
- total protein half-life in vivo [8]: 9.91 ± 0.97 h
- total protein half-life in vivo [9]: 5.51 ± 0.18 h
- total protein half-life in vivo [10]: 9.96 ± 1.1 h
- total protein half-life in vivo [11]: 4.91 ± 0.12 h
- total protein half-life in vivo [12]: 9.56 ± 0.21 h

Sequence: MVDKRESYTKEDLLASGRGELFGAKGPQLPAPNMLMMDRVVKMTETGGNFDKGYVEAELDINPDLWFFGCHFIGDPVMPGCLGLDAMWQLVGFYLGWLGGEGKGRALGVGEVKFTGQVLPTAKKVTYRIHFKRIVNRRLIMGLADGEVLVDGRLIYTASDLKVGLFQDTSAF [P0A6Q3]
- total protein half-life in vivo [1]: 4.896 ± 0.032 h
- total protein half-life in vivo [2]: 4.99 ± 0.2 h
- total protein half-life in vivo [3]: 5.5 ± 0.67 h
- total protein half-life in vivo [4]: 5.48 ± 0.64 h
- total protein half-life in vivo [5]: 5.18 ± 0.13 h
- total protein half-life in vivo [6]: 3.03 ± 0.035 h
- total protein half-life in vivo [7]: 5.626 ± 0.038 h
- total protein half-life in vivo [8]: 11.5 ± 1.6 h
- total protein half-life in vivo [9]: 5.0372 ± 0.0034 h
- total protein half-life in vivo [10]: 10.1 ± 0.12 h
- total protein half-life in vivo [11]: 5.56 ± 0.57 h
- total protein half-life in vivo [12]: 12.2 ± 0.94 h

Sequence: MVKLAFPRELRLLTPSQFTFVFQQPQRAGTPQITILGRLNSLGHPRIGLTVAKKNVRRAHERNRIKRLTRESFRLRQHELPAMDFVVVAKKGVADLDNRALSEALEKLWRRHCRLARGS [P0A7Y8]
- total protein half-life in vivo [2]: 5.44 h
- total protein half-life in vivo [3]: 4.21 h
- total protein half-life in vivo [4]: 6.46 ± 0.22 h
- total protein half-life in vivo [5]: 3.76 ± 0.17 h
- total protein half-life in vivo [6]: 3.11 ± 0.27 h
- total protein half-life in vivo [7]: 4.82 ± 0.15 h
- total protein half-life in vivo [8]: 8.06 h
- total protein half-life in vivo [9]: 3.63 ± 0.43 h
- total protein half-life in vivo [10]: 7.32 ± 2.1 h
- total protein half-life in vivo [11]: 3.7 h
- total protein half-life in vivo [12]: 7.12 ± 0.64 h
